The values that follow come from publication PMC2213499 (The Journal of Experimental Medicine, 2000).

The test addresses Complement C1q (human, UniProt P02745 23-245; P02746 28-253; P02747 29-245). As to the kind of experiment: ELISA. Background: ELISA stands for enzyme-linked immunosorbent assay.

Chain of Complement C1q (P02745 23-245, chain 1 of 3): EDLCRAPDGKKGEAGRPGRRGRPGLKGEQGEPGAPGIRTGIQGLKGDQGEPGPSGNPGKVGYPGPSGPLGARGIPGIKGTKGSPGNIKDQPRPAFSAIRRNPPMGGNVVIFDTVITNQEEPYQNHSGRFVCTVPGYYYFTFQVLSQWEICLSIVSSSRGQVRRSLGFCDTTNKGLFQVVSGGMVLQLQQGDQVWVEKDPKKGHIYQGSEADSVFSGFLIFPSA
Chain of Complement C1q (P02746 28-253, chain 2 of 3): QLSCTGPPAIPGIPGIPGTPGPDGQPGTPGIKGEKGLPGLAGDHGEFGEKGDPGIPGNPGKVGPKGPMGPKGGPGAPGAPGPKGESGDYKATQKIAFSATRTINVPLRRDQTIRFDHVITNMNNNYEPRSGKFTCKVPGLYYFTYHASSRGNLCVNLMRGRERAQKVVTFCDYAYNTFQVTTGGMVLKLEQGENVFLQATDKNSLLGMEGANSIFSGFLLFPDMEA
Chain of Complement C1q (P02747 29-245, chain 3 of 3): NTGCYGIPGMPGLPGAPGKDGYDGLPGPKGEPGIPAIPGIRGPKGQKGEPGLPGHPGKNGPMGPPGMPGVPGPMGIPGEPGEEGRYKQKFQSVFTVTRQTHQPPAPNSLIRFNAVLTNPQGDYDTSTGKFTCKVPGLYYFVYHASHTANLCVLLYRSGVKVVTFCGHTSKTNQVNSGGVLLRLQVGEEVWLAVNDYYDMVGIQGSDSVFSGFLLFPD

B1: Recombinant soluble complement receptor 1 (sCR1) (domain or fragment)
chain: not shown
modifications: 125I in the radioligand assays with immobilised MBL; unlabelled elsewhere
Take B1: the binding result is “binds”.
